Test results reported in paper PMC4091835 (Nature structural & molecular biology, 2014).
Blank lines part the entries; values can stand above or below the binder they belong to.

B1: Human Cdc42 residues 1–178, constitutively active mutant G12V (domain or fragment)
chain: not shown
B3: Full-length human IRSp53 (natural protein, UniProt Q9UQB8-4 1-521, looked up)
chain: MSLSRSEEMHRLTENVYKTIMEQFNPSLRNFIAMGKNYEKALAGVTYAAKGYFDALVKMGELASESQGSKELGDVLFQMAEVHRQIQNQLEEMLKSFHNELLTQLEQKVELDSRYLSAALKKYQTEQRSKGDALDKCQAELKKLRKKSQGSKNPQKYSDKELQYIDAISNKQGELENYVSDGYKTALTEERRRFCFLVEKQCAVAKNSAAYHSKGKELLAQKLPLWQQACADPSKIPERAVQLMQQVASNGATLPSALSASKSNLVISDPIPGAKPLPVPPELAPFVGRMSAQESTPIMNGVTGPDGEDYSPWADRKAAQPKSLSPPQSQSKLSDSYSNTLPVRKSVTPKNSYATTENKTLPRSSSMAAGLERNGRMRVKAIFSHAAGDNSTLLSFKEGDLITLLVPEARDGWHYGESEKTKMRGWFPFSYTRVLDSDGSDRLHMSLQQGKSSSTGNLLDKDDLAIPPPDYGAASRAFPAQTASGFKQRPYSVAVPAFSQGLDDYGARSMSSGSGTLVSTV
B4: CRIB–PR domain of IRSp53 (residues 260–291), synthetic peptide (peptide, UniProt Q9UQB8-4 260-291, looked up)
peptide: Ac-ASKSNLVISDPIPGAKPLPVPPELAPFVGRMS-NH2

Legend:
[1] = target: B3; assay: ITC
[2] = target: B4; assay: ITC
[3] = target: B3; assay: SEC + other: glycerol gradient sedimentation
[4] = target: the molecule itself; assay: SEC + other: glycerol gradient sedimentation
[5] = target: B1; assay: ITC
[6] = target: B4; assay: ITC

Binder: B1
Kd [1]: 16.1 µM
fold reduction of the enthalpy of binding against CRIB–PR [1]: 3 fold
stoichiometry N [1]: 1 Cdc42 per CRIB–PR
stoichiometry N [2]: 1 Cdc42 per CRIB–PR

stoichiometry N [3]: 1 Eps8 per IRSp53 (2:2)
B2: Human Eps8 (natural protein, UniProt Q12929 1-822, looked up)
chain: MNGHISNHPSSFGMYPSQMNGYGSSPTFSQTDREHGSKTSAKALYEQRKNYARDSVSSVSDISQYRVEHLTTFVLDRKDAMITVDDGIRKLKLLDAKGKVWTQDMILQVDDRAVSLIDLESKNELENFPLNTIQHCQAVMHSCSYDSVLALVCKEPTQNKPDLHLFQCDEVKANLISEDIESAISDSKGGKQKRRPDALRMISNADPSIPPPPRAPAPAPPGTVTQVDVRSRVAAWSAWAADQGDFEKPRQYHEQEETPEMMAARIDRDVQILNHILDDIEFFITKLQKAAEAFSELSKRKKNKKGKRKGPGEGVLTLRAKPPPPDEFLDCFQKFKHGFNLLAKLKSHIQNPSAADLVHFLFTPLNMVVQATGGPELASSVLSPLLNKDTIDFLNYTVNGDERQLWMSLGGTWMKARAEWPKEQFIPPYVPRFRNGWEPPMLNFMGATMEQDLYQLAESVANVAEHQRKQEIKRLSTEHSSVSEYHPADGYAFSSNIYTRGSHLDQGEAAVAFKPTSNRHIDRNYEPLKTQPKKYAKSKYDFVARNNSELSVLKDDILEILDDRKQWWKVRNASGDSGFVPNNILDIVRPPESGLGRADPPYTHTIQKQRMEYGPRPADTPPAPSPPPTPAPVPVPLPPSTPAPVPVSKVPANITRQNSSSSDSGGSIVRDSQRHKQLPVDRRKSQMEEVQDELIHRLTIGRSAAQKKFHVPRQNVPVINITYDSTPEDVKTWLQSKGFNPVTVNSLGVLNGAQLFSLNKDELRTVCPEGARVYSQITVQKAALEDSSGSSELQEIMRRRQEKISAAASDSGVESFDEGSSH

Binder: B3
stoichiometry N [4]: 2

Binder: B4
Kd [5]: 5 µM

Kd [6]: 114 µM
B5: Isolated SH3 domain of IRSp53 (domain or fragment)
chain: NGRMRVKAIFSHAAGDNSTLLSFKEGDLITLLVPEARDGWHYGESEKTKMRGWFPFSYTRVLDS
